Data: publication PMC4450592

Key:
[1] = target: HIS-gG3PD (full-length gG3PD, N-terminal 6xHIS-tagged) (Giardia duodenalis (isolate WB clone C6)); test: native gel or EMSA; 3-12% Blue Native PAGE of purified HIS-tagged recombinant proteins (1 μg by the methods, 3 μmol by the legend), silver stain or anti-HIS blot
[2] = target: HIS-gG3PD_C (C-terminal half of gG3PD, N-terminal 6xHIS-tagged) (Giardia duodenalis (isolate WB clone C6)); test: as above

Substance	stoichiometry N [1]	stoichiometry N [2]
HIS-gG3PD (full-length gG3PD, N-terminal 6xHIS-tagged) (enzyme)	2	
HIS-gG3PD_C (C-terminal half of gG3PD, N-terminal 6xHIS-tagged) (domain or fragment)		2
